In patent US9212231B2, “TRAIL R2-specific multimeric scaffolds” (MEDIMMUNE, LLC, dated 2015):
Residue numbers refer to the chain shown, from its start. Values joined by “and” are separate entries in the source; they are usually repeats but may differ in a detail not shown here. Equal values may be shown once. Each block holds one binder with its values, some of them ahead of it.

What was measured:
[1] = biological target: T1, TRAIL R2 expressed on the cell surface (human, UniProt O14763); experiment: cell-based or functional assay
[2] = biological target: T1, TRAIL R2 expressed on the cell surface; experiment: cell-based or functional assay; remark: listed apart in the source
[3] = biological target: T1, TRAIL R2 expressed on the cell surface; experiment: cell-based or functional assay; remark: listed apart in the source
[4] = biological target: recombinant Murine CD40L (E. coli produced) (murine, UniProt P27548); experiment: biosensor competition: inhibition of Murine CD40L (0.5 µg/ml) binding to immobilised Murine CD40-Fc
[5] = biological target: Murine CD40L on the Th2 cell line D10.G4.1 (murine, UniProt P27548); experiment: cell-based or functional assay
[6] = biological target: TRAIL R2 (recombinant, form not given) (human, UniProt O14763, biotin (in the capture ELISA and the competition ELISA of Example 14)); experiment: SPR (ProteOn XPR36), TRAIL R2 immobilised, equilibrium analysis
[7] = biological target: TRAIL R2-Fc fusion protein (human) (UniProt O14763); experiment: competition ELISA: inhibition of binding of 0.75 nM biotinylated TRAIL R2-Fc to plate-coated A9(1C12)
[8] = biological target: T1, TRAIL R2 expressed on the cell surface; experiment: cell-based or functional assay; remark: listed apart in the source

Chain of TRAIL R2-Fc fusion protein (human) (O14763 56-182 limits assumed): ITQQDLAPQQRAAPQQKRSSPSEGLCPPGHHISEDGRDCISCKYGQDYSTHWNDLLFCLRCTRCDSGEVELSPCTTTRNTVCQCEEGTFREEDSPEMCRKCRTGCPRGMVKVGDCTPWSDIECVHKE

Maximum Inhibition %, Colo205 cells [2]: 100%
Maximum Inhibition %, Jurkat cells [3]: 100%
B1: A5(G6) (designed binder)
chain: SGGGGSAIEVKDVTDTTALITWAKPWVDPPPLWGCELAYGIKDVPGDRTTIDLQQKHTAYSIGNLKPDTEYEVSLICFDPYGMRSKPAKETFTTGGGGSGGGGSGGGGSAIEVKDVTDTTALITWAKPWVDPPPLWGCELAYGIKDVPGDRTTIDLQQKHTAYSIGNLKPDTEYEVSLICFDPYGMRSKPAKETFTTGGGGSGGGGSGGGGSAIEVKDVTDTTALITWAKPWVDPPPLWGCELAYGIKDVPGDRTTIDLQQKHTAYSIGNLKPDTEYEVSLICFDPYGMRSKPAKETFTTGGGGSGGGGSGGGGSAIEVKDVTDTTALITWAKPWVDPPPLWGCELAYGIKDVPGDRTTIDLQQKHTAYSIGNLKPDTEYEVSLICFDPYGMRSKPAKETFTTGGGGSGGGGSGTGSAMASGGGGSAIEVKDVTDTTALITWAKPWVDPPPLWGCELAYGIKDVPGDRTTIDLQQKHTAYSIGNLKPDTEYEVSLICFDPYGMRSKPAKETFTTGGGGSGGGGSGGGGSAIEVKDVTDTTALITWAKPWVDPPPLWGCELAYGIKDVPGDRTTIDLQQKHTAYSIGNLKPDTEYEVSLICFDPYGMRSKPAKETFTTGGGGSGGGGSGGGGSAIEVKDVTDTTALITWAKPWVDPPPLWGCELAYGIKDVPGDRTTIDLQQKHTAYSIGNLKPDTEYEVSLICFDPYGMRSKPAKETFTTGGGGSGGGGSGGGGSAIEVKDVTDTTALITWAKPWVDPPPLWGCELAYGIKDVPGDRTTIDLQQKHTAYSIGNLKPDTEYEVSLICFDPYGMRSKPAKETFTTGGGGSGGGGSGTLGHHHHHHHH
IC50 of cell killing, 786-0 cells (CellTiter-Glo) [1]: > 10 nM
IC50 of cell killing, BT-649 cells (CellTiter-Glo) [1]: > 10 nM
IC50 of cell killing, CaCo-2 cells (CellTiter-Glo) [1]: 0.044 nM
IC50 of cell killing, HPAF-II cells (CellTiter-Glo) [1]: 0.016 nM
IC50 of cell killing, HT29 cells (CellTiter-Glo) [1]: 0.01 nM
IC50 of cell killing, Hep3B cells (CellTiter-Glo) [1]: 0.023 nM
IC50 of cell killing, Hep G2 cells (CellTiter-Glo) [1]: 0.04 nM
IC50 of cell killing, Hs766T cells (CellTiter-Glo) [1]: > 10 nM
IC50 of cell killing, LoVo cells (CellTiter-Glo) [1]: 0.005 nM
IC50 of cell killing, NCI-H23 cells (CellTiter-Glo) [1]: > 10 nM
IC50 of cell killing, NCI-H522 cells (CellTiter-Glo) [1]: > 10 nM
IC50 of cell killing, SKHEP-1 cells (CellTiter-Glo) [1]: 0.055 nM
IC50 of cell killing, SNB-75 cells (CellTiter-Glo) [1]: > 10 nM
IC50 of cell killing, SNU-387 cells (CellTiter-Glo) [1]: > 10 nM
IC50 of cell killing, SNU-398 cells (CellTiter-Glo) [1]: > 10 nM
IC50 of cell killing, SNU-475 cells (CellTiter-Glo) [1]: > 10 nM
IC50 of cell killing, SW820 cells (CellTiter-Glo) [1]: > 10 nM
IC50 of cell killing, SW837 cells (CellTiter-Glo) [1]: > 10 nM
IC50 of cell killing, T84 cells (CellTiter-Glo) [1]: 0.247 nM
EC50, killing of Colo205 cells [2]: 0.0005 nM
EC50, killing of Jurkat cells [3]: 0.0001 nM

IC50 [4]: 71 nM
B2: M13 (M13) (designed binder)
chain: AIEVKDVTDTTALITWHDAFGYDFGCELTYGIKDVPGDRTTIDLPDHFHNYSIGNLKPDTEYEVSLICANDHGFDSNPAKETFTTGGGTLGHHHHHHHH

Maximum Inhibition %, Colo205 cells [2]: 97%
Maximum Inhibition %, Jurkat cells [3]: 83%
B3: A3 (G6) (designed binder)
chain: SGGGGSAIEVKDVTDTTALITWAKPWVDPPPLWGCELAYGIKDVPGDRTTIDLQQKHTAYSIGNLKPDTEYEVSLICFDPYGMRSKPAKETFTTGGGGSGGGGSGGGGSAIEVKDVTDTTALITWAKPWVDPPPLWGCELAYGIKDVPGDRTTIDLQQKHTAYSIGNLKPDTEYEVSLICFDPYGMRSKPAKETFTTGGGGSGGGGSGGGGSAIEVKDVTDTTALITWAKPWVDPPPLWGCELAYGIKDVPGDRTTIDLQQKHTAYSIGNLKPDTEYEVSLICFDPYGMRSKPAKETFTTGGGGSGGGGSGGGGSAIEVKDVTDTTALITWAKPWVDPPPLWGCELAYGIKDVPGDRTTIDLQQKHTAYSIGNLKPDTEYEVSLICFDPYGMRSKPAKETFTTGGGGSGGGGSGTLGHHHHHHHH
EC50, killing of Colo205 cells [2]: 0.04 nM
EC50, killing of Jurkat cells [3]: 0.05 nM

IC50, inhibition of Murine CD40L-induced CD86 expression on CD19 gated B cells [5]: 100000 to 200000 nM
IC50 [4]: 5 nM and 6 nM
B4: C3(M13) (designed binder)
chain: AIEVKDVTDTTALITWHDAFGYDFGCELTYGIKDVPGDRTTIDLPDHFHNYSIGNLKPDTEYEVSLICANDHGFDSNPAKETFTTGGGGSGGGGSGGGGSGGGGSGGGGSRLDAPGQIEVKDVTDTTALITWHDAFGYDFGCELTYGIKDVPGDRTTIDLPDHFHNYSIGNLKPDTEYEVSLICANDHGFDSNPAKETFTTGGGTLGHHHHHHHH

IC50, inhibition of Murine CD40L-induced CD86 expression on CD19 gated B cells [5]: 100000 to 200000 nM
IC50 [4]: 29 nM
B5: C1(M13) (designed binder)
chain: AIEVKDVTDTTALITWHDAFGYDFGCELTYGIKDVPGDRTTIDLPDHFHNYSIGNLKPDTEYEVSLICANDHGFDSNPAKETFTTAGGGGSRLDAPGQIEVKDVTDTTALITWHDAFGYDFGCELTYGIKDVPGDRTTIDLPDHFHNYSIGNLKPDTEYEVSLICANDHGFDSNPAKETFTTGGGTLGHHHHHHHH

Kd [6]: 4130 nM
B6: 1C12 (designed binder)
chain: AIEVKDVTDTTALITWAKPEKWDGSIYGCELAYGIKDVPGDRTTIDLNSRHTAYSIGNLKPDTEYEVSLICFTPYGAKSNPAKETFTTGGGTLGHHHHHHHH

IC50, inhibition of Murine CD40L-induced CD86 expression on CD19 gated B cells [5]: 100000 to 200000 nM
IC50 [4]: 5 nM and 6 nM
B7: C4(M13) (designed binder)
chain: AIEVKDVTDTTALITWHDAFGYDFGCELTYGIKDVPGDRTTIDLPDHFHNYSIGNLKPDTEYEVSLICANDHGFDSNPAKETFTTGGGGSGGGGSGGGGSGGGGSGGGGSGGGGSGGGGSRLDAPGQIEVKDVTDTTALITWHDAFGYDFGCELTYGIKDVPGDRTTIDLPDHFHNYSIGNLKPDTEYEVSLICANDHGFDSNPAKETFTTGGGTLGHHHHHHHH

IC50 [7]: 16 nM
Fold Improvement (Kd, against lead clone 1C12) [6]: 40 fold
Kd [6]: 103 nM
B8: A1(1E11) (designed binder)
chain: AIEVKDVTDTTALITWAKPWVDPPPLWGCELAYGIKDVPGDRTTIDLQQKHTAYSIGNLKPDTEYEVSLICFDPYGAKSNPAKETFTTGGGTLGHHHHHHHH

Fold Improvement (Kd, against lead clone 1C12) [6]: 96 fold
Kd [6]: 43 nM
B9: G6 (designed binder)
chain: B8 chain with A77M, K78R, N80K

Fold Improvement (Kd, against lead clone 1C12) [6]: 83 fold
Kd [6]: 50 nM
B10: C4 (designed binder)
chain: B8 chain with G76N, A77K, K78R, S79N, N80V

Fold Improvement (Kd, against lead clone 1C12) [6]: 10 fold
Kd [6]: 422 nM
B11: G3 (designed binder)
chain: B6 chain with G24P, S25P, I26L, Y27W

Maximum Inhibition %, H2122 cells [8]: 97%
B12: A5(1E11) (designed binder)
chain: SGGGGSAIEVKDVTDTTALITWAKPWVDPPPLWGCELAYGIKDVPGDRTTIDLQQKHTAYSIGNLKPDTEYEVSLICFDPYGAKSNPAKETFTTGGGGSGGGGSGGGGSAIEVKDVTDTTALITWAKPWVDPPPLWGCELAYGIKDVPGDRTTIDLQQKHTAYSIGNLKPDTEYEVSLICFDPYGAKSNPAKETFTTGGGGSGGGGSGGGGSAIEVKDVTDTTALITWAKPWVDPPPLWGCELAYGIKDVPGDRTTIDLQQKHTAYSIGNLKPDTEYEVSLICFDPYGAKSNPAKETFTTGGGGSGGGGSGGGGSAIEVKDVTDTTALITWAKPWVDPPPLWGCELAYGIKDVPGDRTTIDLQQKHTAYSIGNLKPDTEYEVSLICFDPYGAKSNPAKETFTTGGGGSGGGGSGTGSAMASGGGGSAIEVKDVTDTTALITWAKPWVDPPPLWGCELAYGIKDVPGDRTTIDLQQKHTAYSIGNLKPDTEYEVSLICFDPYGAKSNPAKETFTTGGGGSGGGGSGGGGSAIEVKDVTDTTALITWAKPWVDPPPLWGCELAYGIKDVPGDRTTIDLQQKHTAYSIGNLKPDTEYEVSLICFDPYGAKSNPAKETFTTGGGGSGGGGSGGGGSAIEVKDVTDTTALITWAKPWVDPPPLWGCELAYGIKDVPGDRTTIDLQQKHTAYSIGNLKPDTEYEVSLICFDPYGAKSNPAKETFTTGGGGSGGGGSGGGGSAIEVKDVTDTTALITWAKPWVDPPPLWGCELAYGIKDVPGDRTTIDLQQKHTAYSIGNLKPDTEYEVSLICFDPYGAKSNPAKETFTTGGGGSGGGGSGTLGHHHHHHHH
EC50, killing of H2122 cells [8]: 0.0006 nM

IC50, inhibition of Murine CD40L-induced CD86 expression on CD19 gated B cells [5]: 100000 to 200000 nM
IC50 [4]: 5 nM and 6 nM
B13: C2(M13) (designed binder)
chain: AIEVKDVTDTTALITWHDAFGYDFGCELTYGIKDVPGDRTTIDLPDHFHNYSIGNLKPDTEYEVSLICANDHGFDSNPAKETFTTGGGGSGGGGSGGGGSRLDAPGQIEVKDVTDTTALITWHDAFGYDFGCELTYGIKDVPGDRTTIDLPDHFHNYSIGNLKPDTEYEVSLICANDHGFDSNPAKETFTTGGGTLGHHHHHHHH

Maximum Inhibition %, H2122 cells [8]: 97%
B14: A4(1E11) (designed binder)
chain: SGGGGSAIEVKDVTDTTALITWAKPWVDPPPLWGCELAYGIKDVPGDRTTIDLQQKHTAYSIGNLKPDTEYEVSLICFDPYGAKSNPAKETFTTGGGGSGGGGSGGGGSAIEVKDVTDTTALITWAKPWVDPPPLWGCELAYGIKDVPGDRTTIDLQQKHTAYSIGNLKPDTEYEVSLICFDPYGAKSNPAKETFTTGGGGSGGGGSGGGGSAIEVKDVTDTTALITWAKPWVDPPPLWGCELAYGIKDVPGDRTTIDLQQKHTAYSIGNLKPDTEYEVSLICFDPYGAKSNPAKETFTTGGGGSGGGGSGGGGSAIEVKDVTDTTALITWAKPWVDPPPLWGCELAYGIKDVPGDRTTIDLQQKHTAYSIGNLKPDTEYEVSLICFDPYGAKSNPAKETFTTGGGGSGGGGSGTGSAMASGGGGSAIEVKDVTDTTALITWAKPWVDPPPLWGCELAYGIKDVPGDRTTIDLQQKHTAYSIGNLKPDTEYEVSLICFDPYGAKSNPAKETFTTGGGGSGGGGSGGGGSAIEVKDVTDTTALITWAKPWVDPPPLWGCELAYGIKDVPGDRTTIDLQQKHTAYSIGNLKPDTEYEVSLICFDPYGAKSNPAKETFTTGGGGSGGGGSGTLGHHHHHHHH
EC50, killing of H2122 cells [8]: 0.0009 nM
